The source of these data is patent US20230235013A1 (MABSOLVE, published 2023).

T1: mouse FcRn (Sino Biological Cat. No. CT029-M08H) (mouse, UniProt Q61559 22-297; P01887 21-119)
T1 construct: Bought protein, captured on an anti-histidine chip
T1 sequence (looked up): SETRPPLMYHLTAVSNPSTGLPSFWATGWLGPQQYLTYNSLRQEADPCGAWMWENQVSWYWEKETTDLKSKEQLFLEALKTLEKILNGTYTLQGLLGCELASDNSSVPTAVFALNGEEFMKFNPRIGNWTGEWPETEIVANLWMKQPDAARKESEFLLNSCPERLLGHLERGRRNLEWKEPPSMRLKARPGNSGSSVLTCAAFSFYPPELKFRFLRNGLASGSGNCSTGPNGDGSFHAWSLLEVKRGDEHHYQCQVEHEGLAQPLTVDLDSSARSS
T1 sequence (b2m, looked up): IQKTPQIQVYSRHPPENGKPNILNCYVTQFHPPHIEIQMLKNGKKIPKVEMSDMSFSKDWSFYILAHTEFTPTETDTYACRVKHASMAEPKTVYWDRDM

B1: anti-CD20 (rituximab) human IgG1 L234Q/L235A/G236R (antibody)
heavy: not shown
light: QIVLSQSPAILSASPGEKVTMTCRASSSVSYIHWFQQKPGSSPKPWIYATSNLASGVPVRFSGSGSGTSYSLTISRVEAEDAATYYCQQWTSNPPTFGGGTKLEIKRTVAAPSVFIFPPSDEQLKSGTASVVCLLNNFYPREAKVQWKVDNALQSGNSQESVTEQDSKDSTYSLSSTLTLSKADYEKHKVYACEVTHQGLSSPVTKSFNRGEC
notes: EU numbering; also called 2-27; copies: 2 + 2
B2: anti-CD20 (rituximab variable regions) mouse IgG2a L234Q/L235S/G236R (antibody)
heavy: QVQLQQPGAELVKPGASVKMSCKASGYTFTSYNMHWVKQTPGRGLEWIGAIYPGNGDTSYNQKFKGKATLTADKSSSTAYMQLSSLTSEDSAVYYCARSTYYGGDWYFNVWGAGTTVTVSSAKTTAPSVYPLAPVCGDTTGSSVTLGCLVKGYFPEPVTLTWNSGSLSSGVHTFPAVLQSDLYTLSSSVTVTSSTWPSQSITCNVAHPASSTKVDKKIEPRGPTIKPCPPCKCPAPNQSRGPSVFIFPPKIKDVLMISLSPIVTCVVVDVSEDDPDVQISWFVNNVEVHTAQTQTHREDYNSTLRVVSALPIQHQDWMSGKEFKCKVNNKDLPAPIERTISKPKGSVRAPQVYVLPPPEEEMTKKQVTLTCMVTDFMPEDIYVEWTNNGKTELNYKNTEPVLDSDGSYFMYSKLRVEKKNWVERNSYSCSVVHEGLHNHHTTKSFSRTPGK
light: QIVLSQSPAILSASPGEKVTMTCRASSSVSYIHWFQQKPGSSPKPWIYATSNLASGVPVRFSGSGSGTSYSLTISRVEAEDAATYYCQQWTSNPPTFGGGTKLEIKRADAAPTVSIFPPSSEQLTSGGASVVCFLNNFYPKDINVKWKIDGSERQNGVLNSWTDQDSKDSTYSMSSTLTLTKDEYERHNSYTCEATHKTSTSPIVKSFNRNEC
notes: copies: 2 + 2
B3: anti-CD52 (alemtuzumab) human IgG1 L234G/L235S/G236R (antibody)
heavy: QVQLQESGPGLVRPSQTLSLTCTVSGFTFTDFYMNWVRQPPGRGLEWIGFIRDKAKGYTTEYNPSVKGRVTMLVDTSKNQFSLRLSSVTAADTAVYYCAREGHTAAPFDYWGQGSLVTVSSASTKGPSVFPLAPSSKSTSGGTAALGCLVKDYFPEPVTVSWNSGALTSGVHTFPAVLQSSGLYSLSSVVTVPSSSLGTQTYICNVNHKPSNTKVDKKVEPKSCDKTHTCPPCPAPEGSRGPSVFLFPPKPKDTLMISRTPEVTCVVVDVSHEDPEVKFNWYVDGVEVHNAKTKPREEQYNSTYRVVSVLTVLHQDWLNGKEYKCKVSNKALPAPIEKTISKAKGQPREPQVYTLPPSRDELTKNQVSLTCLVKGFYPSDIAVEWESNGQPENNYKTTPPVLDSDGSFFLYSKLTVDKSRWQQGNVFSCSVMHEALHNHYTQKSLSLSPGK
light: not shown
notes: EU numbering; also called 4-19; copies: 2 + 2
B4: anti-CD52 (alemtuzumab) human IgG1 L234S/L235V/G236R (antibody)
heavy: B3 heavy with G238S, S239V
light: not shown
notes: EU numbering; also called 4-53; copies: 2 + 2
B5: anti-CD52 (alemtuzumab) human IgG1 L234T/L235Q/G236R (antibody)
heavy: B3 heavy with G238T, S239Q
light: not shown
notes: EU numbering; also called 4-60; copies: 2 + 2
B6: anti-CD52 (alemtuzumab) human IgG1 N297Q (aglycosyl) (antibody)
heavy: not shown
light: not shown
notes: EU numbering; also called 4-67; copies: 2 + 2
B7: anti-CD52 (alemtuzumab) human IgG1 L234S/L235T/G236R (antibody)
heavy: B3 heavy with G238S, S239T
light: not shown
notes: EU numbering; also called 4-52; copies: 2 + 2
B8: anti-CD20 (rituximab) human IgG1 G236R (antibody)
heavy: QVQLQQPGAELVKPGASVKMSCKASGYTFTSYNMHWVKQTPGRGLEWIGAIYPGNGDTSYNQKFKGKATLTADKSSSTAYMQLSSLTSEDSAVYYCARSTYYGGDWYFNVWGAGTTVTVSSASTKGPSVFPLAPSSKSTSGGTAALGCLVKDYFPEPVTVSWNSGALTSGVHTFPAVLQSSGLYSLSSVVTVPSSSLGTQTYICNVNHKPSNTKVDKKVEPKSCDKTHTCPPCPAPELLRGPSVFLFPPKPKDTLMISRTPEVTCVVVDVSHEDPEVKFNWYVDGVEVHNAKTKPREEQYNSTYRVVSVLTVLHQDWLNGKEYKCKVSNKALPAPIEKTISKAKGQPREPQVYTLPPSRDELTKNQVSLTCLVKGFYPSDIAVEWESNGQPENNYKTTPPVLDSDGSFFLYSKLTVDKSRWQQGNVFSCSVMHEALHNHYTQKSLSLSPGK
light: B1 light
notes: EU numbering; also called 2-81; copies: 2 + 2
B9: anti-CD20 (rituximab) human IgG1 L235S/G236R (antibody)
heavy: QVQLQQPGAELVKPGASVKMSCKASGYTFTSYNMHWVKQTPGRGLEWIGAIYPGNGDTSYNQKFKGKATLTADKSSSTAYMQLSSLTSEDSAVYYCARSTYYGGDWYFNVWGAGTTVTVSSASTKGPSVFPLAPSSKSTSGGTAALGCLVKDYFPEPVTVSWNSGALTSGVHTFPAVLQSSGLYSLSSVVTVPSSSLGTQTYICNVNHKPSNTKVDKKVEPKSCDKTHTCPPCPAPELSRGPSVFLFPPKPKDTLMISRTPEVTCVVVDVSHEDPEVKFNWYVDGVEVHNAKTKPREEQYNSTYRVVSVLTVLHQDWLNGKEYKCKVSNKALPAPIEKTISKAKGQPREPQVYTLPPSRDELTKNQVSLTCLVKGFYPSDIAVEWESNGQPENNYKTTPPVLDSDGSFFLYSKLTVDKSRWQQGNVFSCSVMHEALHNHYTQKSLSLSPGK
light: B1 light
notes: EU numbering; also called 2-80; copies: 2 + 2
B10: anti-CD20 (rituximab) human IgG1 L234D/L235S/G236R (antibody)
heavy: QVQLQQPGAELVKPGASVKMSCKASGYTFTSYNMHWVKQTPGRGLEWIGAIYPGNGDTSYNQKFKGKATLTADKSSSTAYMQLSSLTSEDSAVYYCARSTYYGGDWYFNVWGAGTTVTVSSASTKGPSVFPLAPSSKSTSGGTAALGCLVKDYFPEPVTVSWNSGALTSGVHTFPAVLQSSGLYSLSSVVTVPSSSLGTQTYICNVNHKPSNTKVDKKVEPKSCDKTHTCPPCPAPEDSRGPSVFLFPPKPKDTLMISRTPEVTCVVVDVSHEDPEVKFNWYVDGVEVHNAKTKPREEQYNSTYRVVSVLTVLHQDWLNGKEYKCKVSNKALPAPIEKTISKAKGQPREPQVYTLPPSRDELTKNQVSLTCLVKGFYPSDIAVEWESNGQPENNYKTTPPVLDSDGSFFLYSKLTVDKSRWQQGNVFSCSVMHEALHNHYTQKSLSLSPGK
light: B1 light
notes: EU numbering; also called 2-10; 1-29; copies: 2 + 2
B11: anti-CD20 (rituximab) human IgG1 L235G/G236R (antibody)
heavy: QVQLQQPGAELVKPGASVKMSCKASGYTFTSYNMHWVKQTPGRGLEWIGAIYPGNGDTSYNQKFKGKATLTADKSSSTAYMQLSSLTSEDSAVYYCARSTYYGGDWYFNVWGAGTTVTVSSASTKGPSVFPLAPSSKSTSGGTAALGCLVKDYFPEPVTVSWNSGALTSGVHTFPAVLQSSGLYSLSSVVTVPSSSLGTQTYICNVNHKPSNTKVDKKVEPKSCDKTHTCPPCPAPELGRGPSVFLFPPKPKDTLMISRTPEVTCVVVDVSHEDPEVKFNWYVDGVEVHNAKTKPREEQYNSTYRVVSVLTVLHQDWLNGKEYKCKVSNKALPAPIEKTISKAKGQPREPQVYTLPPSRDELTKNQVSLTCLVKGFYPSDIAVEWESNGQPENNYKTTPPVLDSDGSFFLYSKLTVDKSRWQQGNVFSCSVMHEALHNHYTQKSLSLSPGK
light: B1 light
notes: EU numbering; also called 2-83; copies: 2 + 2
B12: anti-CD20 (rituximab) human IgG1 L234Q/L235S, sample 2-82 (antibody)
heavy: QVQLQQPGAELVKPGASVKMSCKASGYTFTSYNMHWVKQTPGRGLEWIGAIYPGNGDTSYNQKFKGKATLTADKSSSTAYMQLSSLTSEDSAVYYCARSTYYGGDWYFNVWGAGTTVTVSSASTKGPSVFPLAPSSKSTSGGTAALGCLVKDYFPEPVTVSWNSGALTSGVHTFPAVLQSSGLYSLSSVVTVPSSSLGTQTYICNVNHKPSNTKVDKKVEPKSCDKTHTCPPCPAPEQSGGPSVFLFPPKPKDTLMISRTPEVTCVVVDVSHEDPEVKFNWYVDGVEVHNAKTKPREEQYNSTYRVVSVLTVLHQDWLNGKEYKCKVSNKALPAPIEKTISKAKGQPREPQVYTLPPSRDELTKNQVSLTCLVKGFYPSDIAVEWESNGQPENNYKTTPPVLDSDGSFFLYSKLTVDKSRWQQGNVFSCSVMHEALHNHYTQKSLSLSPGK
light: B1 light
notes: EU numbering; copies: 2 + 2
B13: anti-CD20 (rituximab) human IgG1 L234Q/L235R/G236R (antibody)
heavy: B10 heavy with D238Q, S239R
light: B1 light
notes: EU numbering; also called 2-32; copies: 2 + 2
B14: anti-CD20 (rituximab) human IgG1 L235A/G236R (antibody)
heavy: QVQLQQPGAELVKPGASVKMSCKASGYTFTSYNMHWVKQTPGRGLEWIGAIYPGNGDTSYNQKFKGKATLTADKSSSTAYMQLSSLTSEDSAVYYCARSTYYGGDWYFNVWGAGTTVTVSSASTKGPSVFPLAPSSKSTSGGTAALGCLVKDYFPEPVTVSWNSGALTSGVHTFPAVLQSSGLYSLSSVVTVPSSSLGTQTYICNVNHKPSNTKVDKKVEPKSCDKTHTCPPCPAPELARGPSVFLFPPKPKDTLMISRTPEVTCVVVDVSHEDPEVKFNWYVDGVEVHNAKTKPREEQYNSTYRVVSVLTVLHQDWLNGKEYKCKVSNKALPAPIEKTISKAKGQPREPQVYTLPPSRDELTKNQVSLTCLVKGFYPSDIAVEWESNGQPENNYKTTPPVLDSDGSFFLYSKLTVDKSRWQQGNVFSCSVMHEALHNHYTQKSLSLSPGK
light: B1 light
notes: EU numbering; also called 2-79; copies: 2 + 2
B15: anti-CD20 (rituximab) human IgG1 L234Q/L235D/G236R (antibody)
heavy: B10 heavy with D238Q, S239D
light: B1 light
notes: EU numbering; also called 2-28; copies: 2 + 2
B16: anti-CD20 (rituximab) human IgG1 G236R/L328R (antibody)
heavy: not shown
light: B1 light
notes: EU numbering; also called 2-68; copies: 2 + 2

Positions count from the first letter of the chain named. Numbers in names are those of the source.

For the first test, the target named is T2, human FcRn (R&D Systems Cat. No. 8639-Fc) (human, UniProt P55899 24-297; P61769 21-119). The experiment in a line: SPR, FcRn captured; Mean. On the technique in general: SPR reads the build-up and loss of mass on a sensor chip optically.
T2 sequence (P55899 24-297 limits assumed, chain 1 of 2): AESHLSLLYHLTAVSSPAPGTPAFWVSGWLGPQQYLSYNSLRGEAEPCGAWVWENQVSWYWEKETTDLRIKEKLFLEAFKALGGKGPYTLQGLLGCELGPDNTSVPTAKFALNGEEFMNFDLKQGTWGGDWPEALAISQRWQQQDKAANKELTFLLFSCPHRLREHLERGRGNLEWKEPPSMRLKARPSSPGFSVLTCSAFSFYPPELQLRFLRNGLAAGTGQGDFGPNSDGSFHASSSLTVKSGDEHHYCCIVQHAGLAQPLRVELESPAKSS
T2 sequence (P61769 21-119 limits assumed, chain 2 of 2): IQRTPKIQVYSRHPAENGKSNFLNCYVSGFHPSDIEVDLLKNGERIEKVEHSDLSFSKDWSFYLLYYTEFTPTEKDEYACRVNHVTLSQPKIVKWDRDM
Turning to B1, the “Corrected and normalised response (% of wild-type reference)” value was 93.5 % of wild-type reference.

For the next test, the target named is T3, Human C1q (Sigma Cat. No. 20476), HRP-labelled (human, UniProt P02745 23-245; P02746 28-253; P02747 29-245).
T3 construct: Coupled to horse-radish peroxidase with Lightning-Link kit; also called HRP-labelled C1q
The experiment in a line: ELISA, antibody coated, HRP-C1q; Expt 1, buffer alone 0.061.
B1: the “Mean Absorbance” value is 0.048 absorbance (450 nm).

The target of a further test is T3, Human C1q (Sigma Cat. No. 20476), …. The experiment in a line: ELISA, antibody coated, HRP-C1q; Expt 1, buffer alone 0.053. Background: An ELISA detects its analyte on a solid surface through an enzyme-linked reagent.
Turning to B2, the “Mean Absorbance” value was 1.45 absorbance (450 nm).
Still for that read-out and setting: in the case of B3 it was 0.053 absorbance (450 nm); in that of B4, 0.057 absorbance (450 nm); in that of B5, 0.056 absorbance (450 nm).
On the same count and under the same terms, the value for B6 was 0.051 absorbance (450 nm).
As for B7, the “Mean Absorbance” value was 0.052 absorbance (450 nm).

A further test deals with T2, human FcRn (R&D Systems Cat. No. …). Nature of the test: SPR, FcRn captured; Expt 2.
B1: the “Corrected and normalised response (% of wild-type reference)” value is 93.4 % of wild-type reference.

Another test shares this target. The experiment in a line: SPR, FcRn captured; Expt 1.
B1: the “Corrected and normalised response (% of wild-type reference)” value was 94.5 % of wild-type reference.

The next test concerns the target T4, cynomolgus monkey FcRn (Sino Biological Cat. No. CT031-C08H) (cynomolgus monkey, UniProt Q8SPV9 24-297; Q8SPW0 21-119).
T4 construct: Bought protein, captured on an anti-histidine chip; also called cynomolgus FcRn
Nature of the test: SPR, FcRn captured via anti-His, pH 6.0.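 Also: SPR binding signal relative to the reference cell, corrected by subtracting the response of a blank sample of running buffer alone.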
Take B8: the “Corrected response (RU)” value is 1290 RU.
The same measure, in the same setting: the value for B9 was 1220 RU.
Same read-out and setting: the value for B10 was 1200 RU; that for B11 was 1250 RU; that for B12 was 1170 RU.
The same measure, in the same setting: the value for B13 was 1240 RU; that for B14 was 1240 RU.
On to B15, for which the “Corrected response (RU)” value was found to be 1160 RU.
Same read-out and setting: the value for B1 was 1220 RU; that for B16 was 1290 RU.

A further test concerns the target T1, mouse FcRn (Sino Biological Cat. No. …). The experiment in a line: SPR, FcRn captured via anti-His, pH 6.0.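 Also: SPR binding signal relative to the reference cell, corrected by subtracting the response of a blank sample of running buffer alone.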
Consider B8, for which the “Corrected response (RU)” value stood at 173 RU.
On the same count and under the same terms, the value for B9 was 189 RU; that for B10 was 145 RU; that for B11 was 146 RU.
Same read-out and setting: in the case of B12 it was 142 RU; in that of B13, 180 RU.
Still for that read-out and setting: in the case of B14 it was 168 RU; in that of B15, 170 RU; in that of B1, 154 RU.
As to B16, the “Corrected response (RU)” value came out at 206 RU.

Another test deals with T2, human FcRn (R&D Systems Cat. No. …). The experiment in a line: SPR, FcRn captured via anti-His, pH 6.0.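 Also: SPR binding signal relative to the reference cell, corrected by subtracting the response of a blank sample of running buffer alone.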
On to B8, for which the “Corrected response (RU)” value was found to be 570 RU.
Still for that read-out and setting: the value for B9 was 530 RU.
Same read-out and setting: in the case of B10 it was 507 RU.
B11: the “Corrected response (RU)” value was 547 RU.
Still for that read-out and setting: in the case of B12 it was 509 RU; in that of B13, 533 RU; in that of B14, 540 RU.
Consider B15, for which the “Corrected response (RU)” value was 490 RU.
As to B1, the “Corrected response (RU)” value was 513 RU.
Turning to B16, the “Corrected response (RU)” value amounted to 567 RU.

Another test has the same target. Nature of the test: SPR, FcRn captured; Expt 3.
Regarding B1, the “Corrected and normalised response (% of wild-type reference)” value was 92.8 % of wild-type reference.

The target in another test is T3, Human C1q (Sigma Cat. No. 20476), …. The experiment in a line: ELISA, antibody coated, HRP-C1q; Expt 2, buffer alone 0.051.
As to B2, the “Mean Absorbance” value was 0.953 absorbance (450 nm).
For the molecule B3, the “Mean Absorbance” value is 0.056 absorbance (450 nm).
Regarding B4, the “Mean Absorbance” value was 0.059 absorbance (450 nm).
Still for that read-out and setting: in the case of B5 it was 0.052 absorbance (450 nm).
The same measure, in the same setting: in the case of B6 it was 0.044 absorbance (450 nm).
On to B7, for which the “Mean Absorbance” value was 0.053 absorbance (450 nm).
